From publication PMC9755262 (Nature Communications, 2022) come the findings set out here.

The target of assay [1] is GST-NUT8 wild type (396-470) (UniProt Q86Y26). The assay is described as follows: BLI; GST-NUT8 wild type or mutants loaded on Anti-GST biosensors, TAZ2 (1723-1836) as analyte; 25 °C; 1x PBS, 0.1% BSA, 0.02% Tween 20; steady-state analysis. (In BLI a coated tip is dipped into the sample, and binding shifts an interference pattern.)
The target of assay [2] is T1, p300 TAZ2 domain (1723-1836), Q09472.
T1 chain: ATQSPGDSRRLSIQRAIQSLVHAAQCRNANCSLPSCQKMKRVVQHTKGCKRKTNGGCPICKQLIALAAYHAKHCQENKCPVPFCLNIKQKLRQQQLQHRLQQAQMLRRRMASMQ
Put plainly: BLI. As to conditions: chain shown with the change, read off a plot.

For assay [3], the target named is T2, NUT-F1c (347-588), tag cleaved (UniProt Q86Y26 347-588).
T2 construct: not shown: His6-GST (pETM-30) or His6 (pETM11), N-terminal, cleaved
Put plainly: SEC; complex run on HiLoad Superdex 200, Superdex 200 Increase 10/300 GL or Superdex 75 Increase 10/300 GL; SDS-PAGE of the peak fractions. As to conditions: both partners purified. On the technique in general: In gel filtration, larger molecules generally elute earlier.

Assay [4] addresses T3, NUT4 (347-480), Q86Y26.
T3 chain: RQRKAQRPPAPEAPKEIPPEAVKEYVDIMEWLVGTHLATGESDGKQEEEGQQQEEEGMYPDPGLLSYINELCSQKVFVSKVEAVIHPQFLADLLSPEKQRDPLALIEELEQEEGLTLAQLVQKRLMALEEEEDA
Put plainly: SEC-MALS; Superdex 75 Increase 10/300 GL, 20 mM HEPES pH 7.0, 300 mM NaCl, 5 µM ZnSO4, 0.5 mM TCEP; 50 µl at 2 mg/ml injected.

Where a chain is given by its changes, count along the chain named. Numbers in names are those of the source.

The term Kd denotes the free concentration of one partner at which half of the binding sites on the other are occupied at equilibrium, for simple one-to-one binding. With “p300 TAZ2 domain (1723-1836) (from UniProt Q09472 1723-1836) (domain or fragment)”, in assay [1], the dissociation constant Kd turned out to be 960 nM. That is a sub-micromolar value.

B1: GST-NUT8 wild type D407K; L410A; Y413K; C418G; F423A; V424G; E428S; V430G; P433G; F435S; L439G; L440S; D447K; A450G; L451S; E454K; L455S; E458K; E459S; L461G; … (protein)
chain: GQQQEEEGMYPKPGALSKINELGSQKVAGSKVSAGIHGQSLADGSSPEKQRKPLGSIEKSEQKSGGSLAQLVQKRLMALEEEEDAE
On to B1, for which the response in assay [2] (TAZ2 10 µM, parent: est. 0.22) was 0.03 nm.

B2: p300 CH3 domain (1660-1815) (domain or fragment, UniProt Q09472 1660-1815, looked up)
chain: TQSQDRFVYTCNECKHHVETRWHCTVCEDYDLCITCYNTKNHDHKMEKLGLGLDDESNNQQAAATQSPGDSRRLSIQRCIQSLVHACQCRNANCSLPSCQKMKRVVQHTKGCKRKTNGGCPICKQLIALCCYHAKHCQENKCPVPFCLNIKQKLRQ
notes: p300 CH3 domain, residues 1660-1815, in pGEX-5x1 with a TEV-cleavable GST tag
Consider B2, for which, in assay [3], the binding result was “binds”.

B3: GST-NUT8 wild type D447A; L449A; A450G; L451A; E453A; E454A; L455A; E456A; E458A; E459A; L461A; T462A (protein)
chain: GQQQEEEGMYPDPGLLSYINELCSQKVFVSKVEAVIHPQFLADLLSPEKQRAPAGAIAAAAQAAGAALAQLVQKRLMALEEEEDAE
On to B3, for which the response in assay [2] (TAZ2 2.5 µM, parent: est. 0.18) amounted to 0.07 nm; in assay [2] (TAZ2 5 µM, parent: est. 0.21), 0.11 nm; in assay [2] (TAZ2 10 µM, parent: est. 0.22), 0.13 nm.

B4: GST-NUT8 wild type L436A; L439A; L440A; D447A; L449A; A450G; L451A; E453A; E454A; L455A; E456A; E458A; E459A; L461A; T462A (protein)
chain: B3 chain with L41A, L44A, L45A
B4: the response was found to be 0.075 nm in assay [2] (TAZ2 2.5 µM, parent: est. 0.18); 0.14 nm in assay [2] (TAZ2 5 µM, parent: est. 0.21); 0.2 nm in assay [2] (TAZ2 10 µM, parent: est. 0.22).

B5: p300 TAZ2 domain (construct limits not told for the experiment) (domain or fragment)
chain: T1 chain
modifications: not checked
By stoichiometry N is commonly meant the number of molecules, sites or subunits per partner or assembly. As to B5, the stoichiometry N in assay [4] was 1.

B6: GST-NUT8 wild type L410A; L411A; Y413A; L417A; C418A; F423A; V424A; V427A; V430A; I431A; F435A; L436A; L439A; L440A; D447A; L449A; A450G; L451A; E453A; E454A; … (protein)
chain: GQQQEEEGMYPDPGAASAINEAASQKVAASKAEAAAHPQAAADAASPEKQRAPAGAIAAAAQAAGAALAQLVQKRLMALEEEEDAE
With B6, the response in assay [2] (TAZ2 10 µM, parent: est. 0.22) was 0.085 nm.
